Source: patent US20100080800A1

Molecular target: Aβ13-21 peptide (peptide 13)
Assay: ELISA, biotinylated peptide (Mimotopes protocol)

O.D: 0.171 O.D
Substance: Control IgG (antibody)
